Assay results as given in PMC7878476.

Target: DnaJB8ΔCTD (human)
Experiment: cross-linking; HspA1A in 1× PBS pH 7.4 mixed with 40 μM DnaJB8, JD_(1–82), DnaJB8ΔCTD or DnaJB8F→S; 37 °C, ADH/DMTMM; XL–MS in triplicate

Sequence of human Hsp70 (HspA1A) (P0DMV8 whole entry): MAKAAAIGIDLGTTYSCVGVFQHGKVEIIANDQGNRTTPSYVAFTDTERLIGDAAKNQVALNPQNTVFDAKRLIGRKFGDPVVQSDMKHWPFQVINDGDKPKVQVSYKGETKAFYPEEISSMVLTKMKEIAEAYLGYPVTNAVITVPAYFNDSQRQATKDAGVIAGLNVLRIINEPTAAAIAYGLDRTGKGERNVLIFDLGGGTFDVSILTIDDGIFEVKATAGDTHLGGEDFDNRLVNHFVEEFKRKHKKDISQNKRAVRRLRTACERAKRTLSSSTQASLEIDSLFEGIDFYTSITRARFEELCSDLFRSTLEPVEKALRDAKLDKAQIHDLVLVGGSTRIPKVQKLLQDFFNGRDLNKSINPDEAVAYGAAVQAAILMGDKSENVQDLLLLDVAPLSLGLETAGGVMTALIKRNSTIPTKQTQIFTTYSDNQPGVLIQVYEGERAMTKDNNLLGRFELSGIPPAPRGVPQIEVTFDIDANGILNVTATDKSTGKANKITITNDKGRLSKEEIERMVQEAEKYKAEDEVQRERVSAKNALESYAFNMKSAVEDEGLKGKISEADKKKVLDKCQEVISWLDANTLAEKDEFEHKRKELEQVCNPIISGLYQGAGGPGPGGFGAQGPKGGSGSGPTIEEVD

- total cross-links between the JD and HspA1A across three XL–MS experiments: 14 cross-links
Substance: human Hsp70 (HspA1A) (from UniProt P0DMV8 1-641) (natural protein)
